Reference: patent US20040009511A1, “Identification of compounds which stimulate bone formation using a cell-based screening assay targeting BMP signaling” (priority 2002, published 2004)

How the values were obtained:
[1] = test system: 9×SBE-6×OSE2-OC-luc reporter construct in 2T3 C-17 cells; experiment: Luciferase assay, 9×SBE-6×OSE2-OC-luc reporter stably transfected in 2T3 clone C-17; format: cell-based; set-up: Luciferase Activity: unit not given here; settings: for Effect on luciferase activity of the reporter construct: 2T3 C-17 cells
Description: (§1) An oligonucleotide containing 9 copies of Smad1 response element (9×SBE) and 6 copies of Cbfa1 response element (6×OSE2) was synthesized in the DNA laboratory at University of Texas Health Science Center at San Antonio. The osteocalcin basal promoter (OC, −155/+1) was amplified by Polymerase Chain Reaction (PCR) using mouse genomic DNA as a template and cloned into pGL3 vector. An 9×SBE-6×OSE2 oligonucleotide was cloned upstream of osteocalcin basal promoter.
(§2) C2C12 and 2T3 cells were plated in 6-well culture plates at densities of 4×10^5 and 2×10^5 cells/well and cultured with DMEM or α minimal essential medium (α MEM) supplemented with 10% FCS for 24 hours. A 9×SBE-6×OSE2-OC-luc-reporter construct (2 μg/well) was co-transfected with pcDNA3 empty vector (0.2 mg/well) in C2C12 and 2T3 cells using lipofactamine plus reagents (Gibco/BRL). Forty eight hours later, G418 (200 μg/ml) was added to the culture plates. Four weeks after G418 selection, the G418 resistant cells were plated in 96-well plates at the density of 1 cell/well and cloned by limiting dilution method.
(§3) C2C12 and 2T3 cells, in which 9×SBE-6×OSE2-OC-luc-reporter construct was stably transfected, were plated in 96-well culture plates at densities of 1×10^4 and 0.5×10^4 cells/well and cultured for 24 hours. The medium was changed to fresh medium supplemented with 2% FCS and different growth factors or hormone were added to culture medium for 24 hours or different compounds were added to culture medium for 2, 6, 12, 24 and 48 hours. The cell lysates were extracted and luciferase activities were determined by luciferase assay kit (Promega, Madison, Wis.) using a Luminometer.
(§4) At the end of the incubation, the cell lysates were extracted using lysis buffer and luciferase activities were measured using a luciferase assay kit (Promega).

[2] = test system: BMP production in MG-63 cells; experiment: Conditioned medium of treated MG-63 cells tested on 2T3 C-17 reporter cells; format: cell-based, human; settings: MG-63 treated 1 and 5 hours, washed, 24 hour CM; 2T3 C-17 treated with CM 48 hours
Description: 2T3 C-17 cells were then treated with said CM for 48 hours.

[3] = test system: 9×SBE-6×OSE2-OC-luc reporter construct; experiment: Luciferase assay, 9×SBE-6×OSE2-OC-luc reporter construct, cells not specified; format: cell-based; settings: stimulation of luciferase activity; stated for C2C12 C-10-62 and 2T3 C-17 without distinction
Source text: as §1, §3
Further, a reporter construct which contains multiple copies of both Smad1 (SBE) and Cbfa1 (OSE2) response elements (9×SBE-6×OSE2-OC-luc) was made.

[4] = test system: 9×SBE-6×OSE2-OC-luc reporter construct in C2C12 C-10-62 cells; experiment: Luciferase assay, 9×SBE-6×OSE2-OC-luc reporter stably transfected in C2C12 clone C-10-62; format: cell-based; settings: 24 hours
Description: as §1, §2, §3, §4

[5] = Epoxomicin 0.0156 μM, cell type not given
[6] = Epoxomicin 0.0625 μM, cell type not given
[7] = Epoxomicin 0.125 μM, cell type not given
[8] = Epoxomicin 0.25 μM, cell type not given
[9] = Epoxomicin 0.5 μM, cell type not given
[10] = Epoxomicin 1 μM, cell type not given
[11] = BMP-7 1.95 ng/ml, 24 hours, 2T3 clone 17
[12] = BMP-7 3.91 ng/ml, 24 hours, 2T3 clone 17
[13] = BMP-7 7.81 ng/ml, 24 hours, 2T3 clone 17
[14] = BMP-7 15.625 ng/ml, 24 hours, 2T3 clone 17
[15] = BMP-7 31.25 ng/ml, 24 hours, 2T3 clone 17
[16] = BMP-7 62.5 ng/ml, 24 hours, 2T3 clone 17
[17] = BMP-7 125 ng/ml, 24 hours, 2T3 clone 17
[18] = BMP-7 250 ng/ml, 24 hours, 2T3 clone 17
[19] = BMP-7 500 ng/ml, 24 hours, 2T3 clone 17
[20] = BMP-7 1000 ng/ml, 24 hours, 2T3 clone 17
[21] = BMP-4 0.049 ng/ml, 24 hours, 2T3 clone 17
[22] = BMP-4 0.098 ng/ml, 24 hours, 2T3 clone 17
[23] = BMP-4 0.195 ng/ml, 24 hours, 2T3 clone 17
[24] = BMP-4 0.39 ng/ml, 24 hours, 2T3 clone 17
[25] = BMP-4 0.78 ng/ml, 24 hours, 2T3 clone 17
[26] = BMP-4 1.56 ng/ml, 24 hours, 2T3 clone 17
[27] = BMP-4 3.125 ng/ml, 24 hours, 2T3 clone 17
[28] = BMP-4 6.25 ng/ml, 24 hours, 2T3 clone 17
[29] = BMP-4 12.5 ng/ml, 24 hours, 2T3 clone 17
[30] = BMP-4 25 ng/ml, 24 hours, 2T3 clone 17
[31] = BMP-4 50 ng/ml, 24 hours, 2T3 clone 17
[32] = BMP-4 100 ng/ml, 24 hours, 2T3 clone 17

## CC[C@H](C)[C@H](NC(=O)[C@H]([C@@H](C)CC)N(C)C(C)=O)C(=O)N[C@H](C(=O)N[C@@H](CC(C)C)C(=O)[C@@]1(C)CO1)[C@@H](C)O [Epoxomicin, epoxomicin, reference compound]
[1]; [5]
  Luciferase Activity: 0.041
  Luciferase Activity (fold increase): 1.0 fold
[1]; [6]
  Luciferase Activity: 0.064
  Luciferase Activity (fold increase): 1.6 fold
[1]; [7]
  Luciferase Activity: 0.098
  Luciferase Activity (fold increase): 2.4 fold
[1]; [8]
  Luciferase Activity: 0.142
  Luciferase Activity (fold increase): 3.5 fold
[1]; [9]
  Luciferase Activity: 0.153
  Luciferase Activity (fold increase): 3.7 fold
[1]; [10]
  Luciferase Activity: 0.120
  Luciferase Activity (fold increase): 2.9 fold
[2]
  Effect of 24 hour conditioned medium of treated MG-63 cells on the reporter construct: CM stimulated the reporter construct in a concentration-dependent manner

B1: BMP-7: Bone morphogenetic protein 7 (protein, UniProt P18075 293-431, looked up)
Bone morphogenetic protein 7: STGSKQRSQNRSKTPKNQEALRMANVAENSSSDQRQACKKHELYVSFRDLGWQDWIIAPEGYAAYYCEGECAFPLNSYMNATNHAIVQTLVHFINPETVPKPCCAPTQLNAISVLYFDDSSNVILKKYRNMVVRACGCH
[1]; 24 hours
  Effect on luciferase activity of the reporter construct: stimulated luciferase activity in a dose-dependent manner
[1]; [11]
  Luciferase Activity: 0.076
  Luciferase Activity (fold increase): 1.1 fold
[1]; [12]
  Luciferase Activity: 0.090
  Luciferase Activity (fold increase): 1.3 fold
[1]; [13]
  Luciferase Activity: 0.108
  Luciferase Activity (fold increase): 1.6 fold
[1]; [14]
  Luciferase Activity: 0.148
  Luciferase Activity (fold increase): 2.2 fold
[1]; [15]
  Luciferase Activity: 0.216
  Luciferase Activity (fold increase): 3.2 fold
[1]; [16]
  Luciferase Activity: 0.374
  Luciferase Activity (fold increase): 5.6 fold
[1]; [17]
  Luciferase Activity: 0.813
  Luciferase Activity (fold increase): 12.1 fold
[1]; [18]
  Luciferase Activity: 1.425
  Luciferase Activity (fold increase): 21.3 fold
[1]; [19]
  Luciferase Activity: 2.224
  Luciferase Activity (fold increase): 33.2 fold
[1]; [20]
  Luciferase Activity: 3.404
  Luciferase Activity (fold increase): 50.8 fold
[3]
  Minimal effective dose: 15 to 30 ng/mL
[4]
  Effect on luciferase activity of the reporter construct: stimulated luciferase activity in a dose-dependent manner

B2: BMP-4: Bone morphogenetic protein 4 (protein, UniProt P12644 293-408, looked up)
Bone morphogenetic protein 4: SPKHHSQRARKKNKNCRRHSLYVDFSDVGWNDWIVAPPGYQAFYCHGDCPFPLADHLNSTNHAIVQTLVNSVNSSIPKACCVPTELSAISMLYLDEYDKVVLKNYQEMVVEGCGCR
[1]; 24 hours
  Effect on luciferase activity of the reporter construct: stimulated luciferase activity in a dose-dependent manner
[1]; [21]
  Luciferase Activity: 0.0745
  Luciferase Activity (fold increase): 1.6 fold
[1]; [22]
  Luciferase Activity: 0.111
  Luciferase Activity (fold increase): 2.3 fold
[1]; [23]
  Luciferase Activity: 0.141
  Luciferase Activity (fold increase): 2.9 fold
[1]; [24]
  Luciferase Activity: 0.384
  Luciferase Activity (fold increase): 8.0 fold
[1]; [25]
  Luciferase Activity: 0.597
  Luciferase Activity (fold increase): 12.4 fold
[1]; [26]
  Luciferase Activity: 0.821
  Luciferase Activity (fold increase): 17.1 fold
[1]; [27]
  Luciferase Activity: 1.064
  Luciferase Activity (fold increase): 22.2 fold
[1]; [28]
  Luciferase Activity: 1.256
  Luciferase Activity (fold increase): 26.2 fold
[1]; [29]
  Luciferase Activity: 1.534
  Luciferase Activity (fold increase): 32.0 fold
[1]; [30]
  Luciferase Activity: 1.576
  Luciferase Activity (fold increase): 32.8 fold
[1]; [31]
  Luciferase Activity: 1.887
  Luciferase Activity (fold increase): 39.3 fold
[1]; [32]
  Luciferase Activity: 2.166
  Luciferase Activity (fold increase): 45.1 fold
[3]
  Minimal effective dose: 0.1 to 0.2 ng/mL
[4]
  Effect on luciferase activity of the reporter construct: stimulated luciferase activity in a dose-dependent manner
